Entries after “also recorded” stand apart in the source; their conditions may differ. Each block holds one molecule with its values, some of them ahead of it.
Columns and labels:
[1] = target: T1, CRBN (Homo sapiens, UniProt Q96SW2); test: Pomalidomide-dependent degradation of IKZF3 degron with A153 substitutions; format: cell-based; design: endogenous in cells; conditions: wtCRBN-expressing cells, pomalidomide dose-response
Description: (§1) Transduced cells were incubated with a range of Pomalidomide concentrations or DMSO for 20 hours. Cells were analyzed by flow cytometry for eGFP and mCherry fluorescence. 1000 mCherry+ cells were analyzed per sample, and the geometric mean of the per-cell eGFP/mCherry ratio was calculated in Flowjo. In Pomalidomide dose titration studies, the EC50 was calculated by non-linear regression in Prism. Experiments were performed in triplicate. In some cases cell surface protein expression was assayed in parallel with the above reporter assay; cells were stained with anti-CD28-BV421 antibody (BD Biosciences 562613) at a 1:50 dilution in FACS buffer (PBS+2% FCS+2 mM EDTA) for 10 minutes on ice. Cells were washed with FACS buffer and analyzed by flow cytometry.

[2] = target: T1, CRBN; conditions: in vitro; cited from earlier work
[3] = target: T2, CRL4^CRBN (Homo sapiens, UniProt Q96SW2); test: GFP/mCherry reporter assay for degradation of degron-eGFP fusion proteins in Jurkat T cells; format: cell-based
T2 construct: endogenous in cells; host or cells: Jurkat T cells (ligase endogenous; degron-eGFP reporters lentivirally transduced)
Description: First, the FMC63 anti-CD19 scFv was exchanged for the CD28 Ig-like V-type extracellular domain. […] Experiments were performed in triplicate.
as §1, with “Transduced cells were incubated with a range of Pomalidomide concentrations or DMSO for 20 hours.” left out
First, the FMC63 anti-CD19 scFv was exchanged for the CD28 Ig-like V-type extracellular domain.

[4] = test system: K562-CD19 cells; test: Jurkat degron-tagged CAR-T co-culture with K562-CD19 (Myc-tag, CD69, IL2); format: cell-based, human
Description: 100,000 CAR-T Jurkat cells were co-cultured with 20,000 K562 or K562-CD19 cells for 18 hours.
Jurkat T cells lentivirally transduced with the genetic components described herein were co-cultured for 24 hours with K562 cells (human blast crisis Chronic Myeloid Leukemia cell line) lentivirally transduced with an expression vector encoding CD19 (referred to as K562-CD19) (G&P Biosciences LTV-CD19) or isogenic K562 cells lacking the target antigen. Both K562-CD19 and K562 cell lines were engineered to express homogenous high level mCherry expression via transduction with the Jenner lentivirus, allowing discrimination of K562 and Jurkat cells by flow cytometry. Unless otherwise specified, 50,000 Jurkat cells were co-cultured with 10,000 K562 cells in 110 ul of RPMI supplemented with Pen/Strep and 10% fetal calf serum for 24 hours. The supernatant was then harvested for cytokine secretion assays and IL2 concentration in the supernatant was performed according to manufacturer specifications (BD Biosciences 555190). The cells were analyzed by flow cytometry. Expression of the early activation marker CD69 (BioLegend 310910), myc tagged cell surface proteins (Cell Signaling Technologies 2233S), and fluorescent protein markers were assessed.

[5] = test system: IKZF3aa130-189; test: BRET assay, dimerization of IKZF3aa130-189 with CRBN or minCRBN variants; format: cell-based, human; conditions: pomalidomide dose-response
Description: Specifically, CRBN deletion variants were engineered to retain binding to Pom/IKZF3 but not DDB1/CUL4. Four deletion variants were generated in CRBN that removed the DDB1-binding domain, as shown in the middle image (NTD is the N-terminal domain; LLP1 is Lon-like protease domain 1 (split into LLP1-N and LLP1-C regions); TBD is the Thalidomide binding domain). At middle, BRET assays were performed upon 293T cells harboring bialleleic CRISPR/Cas9 disruption of endogenous CRBN (293T-CRBNΔe5), to assess dimerization between IKZF3aa130-189 and CRBN or minCRBN variants (dose-response data shown are CRBN, minCRBN1, minCRBN2, minCRBN3 and minCRBN4). […] Pomalidomide-dependent dimerization was observed between IKZF3aa130-189-HaloTag and CRBN-Nanoluciferase (NLuc) or minCRBN2-4-NLuc. […] 1 day after transfection, cells were exposed to 1 μM pomalidomide for the number of hours indicated and GFP and mCherry fluorescence was measured by flow cytometry (eGFPmCherry levels were detected as 0.5 or less for the CRBN trace).
(§2) 293T cells were co-transfected with pFC14K and pFC32K plasmids expressing IKZF3-HaloTag and CRBN-Nanoluciferase fusion proteins and incubated overnight. Cells were then trypsinized and seeded into 96 well plates, at 40,000 cells per well. The BRET assay was performed per manufacturer's instructions (Promega™). In brief, cells were incubated for 2 hours with varying concentrations of Pomalidomide or DMSO, 10 μM MG132, and 100 nM HaloTag NanoBRET 618 Ligand. NanoBRET Nano-Glo substrate was added and donor (460 nm) and acceptor (618 nm) emission were measured within 10 minutes (EnVision, Perkin Elmer). Mean corrected milliBRET units (mBU) was calculated.
Tested forms of minimal CRBN included minCRBN1, minCRBN2, minCRBN3 and minCRBN4, each of which were aligned against the wild-type CRBN (FIG. 1; all tested minCRBNs lacked the DDB1-binding domain—minCRBN1 comprised amino acids 339-442 of CRBN (including the TBD); minCRBN2 comprised amino acids 317-442 of CRBN (including TBD and an N-terminal extended sequence relative to minCRBN1); minCRBN3 included all CRBN sequence other than amino acids 194-207 (deletion of the DDB1-binding domain); and minCRBN4 included all sequences other than amino acids 187-260 (deletion of the DDB1-binding domain)).

[6] = test system: IKZF3 degron-GFP; test: eGFP/mCherry reporter, IKZF3 degron degradation with co-transfected CRBN or minCRBN1-4 in 293T-CRBNΔe5 cells; format: cell-based, human; conditions: 1 μM pomalidomide, time course in hours, 293T-CRBNΔe5 cells
Description: Specifically, CRBN deletion variants were engineered to retain binding to Pom/IKZF3 but not DDB1/CUL4. Four deletion variants were generated in CRBN that removed the DDB1-binding domain, as shown in the middle image (NTD is the N-terminal domain; LLP1 is Lon-like protease domain 1 (split into LLP1-N and LLP1-C regions); TBD is the Thalidomide binding domain). At middle, BRET assays were performed upon 293T cells harboring bialleleic CRISPR/Cas9 disruption of endogenous CRBN (293T-CRBNΔe5), to assess dimerization between IKZF3aa130-189 and CRBN or minCRBN variants (dose-response data shown are CRBN, minCRBN1, minCRBN2, minCRBN3 and minCRBN4). […] 1 day after transfection, cells were exposed to 1 μM pomalidomide for the number of hours indicated and GFP and mCherry fluorescence was measured by flow cytometry (eGFPmCherry levels were detected as 0.5 or less for the CRBN trace).
Transduced cells were incubated with a range of Pomalidomide concentrations or DMSO for 20 hours. Cells were analyzed by flow cytometry for eGFP and mCherry fluorescence. 1000 mCherry+ cells were analyzed per sample, and the geometric mean of the per-cell eGFP/mCherry ratio was calculated in Flowjo. In Pomalidomide dose titration studies, the EC50 was calculated by non-linear regression in Prism. […] Cells were washed with FACS buffer and analyzed by flow cytometry.

[7] = test system: IKZF3 A153M; test: BRET, IKZF3 A153 substitutions with CRBN, CRBN V388A or CRBN I371A; format: cell-based, human; conditions: 293T cells, 2 hours
Description: as §2

Chain of IKZF3 A153M (Q9UKT9 130-189 A153M limits assumed): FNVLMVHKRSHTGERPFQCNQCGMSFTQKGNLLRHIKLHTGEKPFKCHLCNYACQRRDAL
Chain of IKZF3aa130-189 (Q9UKT9 130-189 limits assumed, one chain of several): as the sequence (Q9UKT9 130-189 A153M limits assumed) above, with M24A counted along it
Chain of IKZF3 degron-GFP (Q9UKT9 130-189 limits assumed, one chain of several): as the sequence (Q9UKT9 130-189 A153M limits assumed) above, with M24A counted along it
T2 sequence (Q16531 whole entry partner, one chain of several, the tested form may be a part): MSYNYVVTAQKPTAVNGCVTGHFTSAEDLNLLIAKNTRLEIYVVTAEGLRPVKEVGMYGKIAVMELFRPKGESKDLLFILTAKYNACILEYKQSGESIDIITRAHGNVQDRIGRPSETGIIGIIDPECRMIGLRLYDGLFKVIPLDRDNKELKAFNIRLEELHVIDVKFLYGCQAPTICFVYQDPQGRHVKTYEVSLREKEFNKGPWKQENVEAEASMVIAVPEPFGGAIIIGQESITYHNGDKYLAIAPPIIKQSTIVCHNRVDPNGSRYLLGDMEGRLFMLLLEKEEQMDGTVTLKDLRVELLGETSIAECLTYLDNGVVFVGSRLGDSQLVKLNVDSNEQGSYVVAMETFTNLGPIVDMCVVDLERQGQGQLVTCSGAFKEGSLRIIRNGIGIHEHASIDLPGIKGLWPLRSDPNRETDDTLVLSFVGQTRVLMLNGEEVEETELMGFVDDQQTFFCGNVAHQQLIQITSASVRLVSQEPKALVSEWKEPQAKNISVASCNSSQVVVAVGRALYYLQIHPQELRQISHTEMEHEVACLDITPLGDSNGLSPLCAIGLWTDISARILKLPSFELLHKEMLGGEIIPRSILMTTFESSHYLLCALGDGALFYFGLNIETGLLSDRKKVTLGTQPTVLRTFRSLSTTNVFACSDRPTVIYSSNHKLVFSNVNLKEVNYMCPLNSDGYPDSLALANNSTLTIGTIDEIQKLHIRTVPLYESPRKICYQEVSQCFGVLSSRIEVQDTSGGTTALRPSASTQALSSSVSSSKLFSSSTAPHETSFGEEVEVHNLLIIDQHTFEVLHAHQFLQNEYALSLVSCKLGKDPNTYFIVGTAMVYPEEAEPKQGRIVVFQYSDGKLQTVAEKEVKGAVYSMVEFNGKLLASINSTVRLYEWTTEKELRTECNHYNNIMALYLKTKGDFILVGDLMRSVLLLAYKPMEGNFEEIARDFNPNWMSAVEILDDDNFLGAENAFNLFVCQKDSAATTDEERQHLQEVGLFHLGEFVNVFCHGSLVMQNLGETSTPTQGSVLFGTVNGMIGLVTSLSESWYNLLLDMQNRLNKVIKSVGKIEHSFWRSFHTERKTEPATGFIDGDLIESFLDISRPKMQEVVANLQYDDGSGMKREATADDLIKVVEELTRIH
T2 sequence (Q13619 whole entry partner, one chain of several, the tested form may be a part): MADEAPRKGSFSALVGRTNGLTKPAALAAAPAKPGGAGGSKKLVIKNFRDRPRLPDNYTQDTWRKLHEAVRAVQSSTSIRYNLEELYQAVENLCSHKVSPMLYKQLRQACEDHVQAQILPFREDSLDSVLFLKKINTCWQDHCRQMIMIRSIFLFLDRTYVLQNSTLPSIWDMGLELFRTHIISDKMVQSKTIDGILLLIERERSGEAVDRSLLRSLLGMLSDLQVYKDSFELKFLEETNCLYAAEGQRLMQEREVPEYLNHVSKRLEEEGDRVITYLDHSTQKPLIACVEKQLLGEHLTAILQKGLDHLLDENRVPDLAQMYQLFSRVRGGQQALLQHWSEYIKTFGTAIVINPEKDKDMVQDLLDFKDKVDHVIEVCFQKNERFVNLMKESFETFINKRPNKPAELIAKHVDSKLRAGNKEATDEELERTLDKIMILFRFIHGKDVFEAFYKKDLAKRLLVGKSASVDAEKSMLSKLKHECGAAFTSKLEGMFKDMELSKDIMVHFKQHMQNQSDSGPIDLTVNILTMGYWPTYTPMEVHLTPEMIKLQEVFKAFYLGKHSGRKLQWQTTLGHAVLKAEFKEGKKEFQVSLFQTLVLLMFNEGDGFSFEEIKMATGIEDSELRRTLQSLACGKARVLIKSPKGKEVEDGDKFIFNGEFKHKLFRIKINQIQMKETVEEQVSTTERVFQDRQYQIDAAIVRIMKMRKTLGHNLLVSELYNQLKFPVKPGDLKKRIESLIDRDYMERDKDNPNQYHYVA
T2 sequence (P62877 whole entry partner, one chain of several, the tested form may be a part): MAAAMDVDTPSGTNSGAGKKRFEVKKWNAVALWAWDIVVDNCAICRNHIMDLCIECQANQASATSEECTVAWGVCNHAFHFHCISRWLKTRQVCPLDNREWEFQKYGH
T2 sequence (Q9UKT9 130-189 partner limits assumed, one chain of several): as the sequence (Q9UKT9 130-189 A153M limits assumed) above, with M24A counted along it

Molecule: IKZF3 A153M: IKZF3 degron polypeptide, amino acids 130-189 A153M, SEQ ID NO: 36
pomalidomide-dependent degradation of substituted IKZF3 degron [1]: disrupted binding and degradation by CRBN

Molecule: Nc1cccc2c1C(=O)N(C1CCC(=O)NC1=O)C2=O (stereo not shown) [pomalidomide, Pomalidomide]
binding to CRBN [2]: binds to CRBN in vitro

Molecule: O=C1CCC(N2C(=O)c3ccccc3C2=O)C(=O)N1 (stereo not shown) [thalidomide, Thalidomide]
binding to CRBN [2]: binds to CRBN in vitro

degradation of degron-eGFP protein ([3]; by 1 hour after addition of 1 μM pomalidomide): ~90% | EC50 ([3]; nM pomalidomide, Jurkat T cells): 0.4 nM
Molecule: degron: IKZF3 degron polypeptide, amino acids 130-189, SEQ ID NO: 5, as eGFP fusion

Molecule: d913: Hybrid degron, IKZF3 aa 130-145 + ZFP91 aa 400-410 + IKZF3 aa 157-189, SEQ ID NO: 95 (FNVLMVHKRSHTGERPLQCEICGFTCRQKGNLLRHIKLHTGEKPFKCHLCNYACQRRDAL)
drug control over CAR protein expression, activation and IL2 secretion ([4]; Jurkat CAR-T with K562 or K562-CD19, 18 hours): more robust control over CAR protein expression, activation, and cytokine secretion than the endogenous IKZF3 degron | cell surface CAR expression (anti-Myc tag) ([4]; Jurkat T cells, no drug (tonic)): lower tonic CAR cell surface protein abundance versus the control CAR

Molecule: A153D: IKZF3 degron polypeptide, amino acids 130-189 A153D, SEQ ID NO: 43
pomalidomide-dependent degradation of substituted IKZF3 degron [1]: most effective at disrupting pomalidomide-dependent IKZF3 degron degradation

B1: minCRBN1: Minimal CRBN, amino acids 339-442 of CRBN (including the TBD), SEQ ID NO: 1 (protein)
chain: SLSLCGPMAAYVNPHGYVHETLTVYKACNLNLIGRPSTEHSWFPGYAWTVAQCKICASHIGWKFTATKKDMSPQKFWGLTRSALLPTIPDTEDEISPDKVILCL
pomalidomide-dependent dimerization with IKZF3 degron (mBU) [5]: dose-dependence was only not observed

B2: CRBN: Native Homo sapiens CRBN polypeptide, SEQ ID NO: 6; positive control (protein, listed as Homo sapiens)
chain: MAGEGDQQDAAHNMGNHLPLLPAESEEEDEMEVEDQDSKEAKKPNIINFDTSLPTSHTYLGADMEEFHGRTLHDDDSCQVIPVLPQVMMILIPGQTLPLQLFHPQEVSMVRNLIQKDRTFAVLAYSNVQEREAQFGTTAEIYAYREEQDFGIEIVKVKAIGRQRFKVLELRTQSDGIQQAKVQILPECVLPSTMSAVQLESLNKCQIFPSKPVSREDQCSYKWWQKYQKRKFHCANLTSWPRWLYSLYDAETLMDRIKKQLREWDENLKDDSLPSNPIDFSYRVAACLPIDDVLRIQLLKIGSAIQRLRCELDIMNKCTSLCCKQCQETEITTKNEIFSLSLCGPMAAYVNPHGYVHETLTVYKACNLNLIGRPSTEHSWFPGYAWTVAQCKICASHIGWKFTATKKDMSPQKFWGLTRSALLPTIPDTEDEISPDKVILCL
eGFP/mCherry level of IKZF3 degron-GFP reporter [6]: ≤ 0.5 | eGFP/mCherry level of IKZF3 degron-GFP reporter ([6]; listed as wild-type CRBN): successfully promoted degradation of the IKZF3 degron | pomalidomide-dependent dimerization with IKZF3 degron (mBU) [5]: pomalidomide-dependent interactions

B3: CRBN V388A: CRBN polypeptide with V388A substitution (protein, UniProt Q96SW2 1-442, looked up, variant V388A)
Protein cereblon: MAGEGDQQDAAHNMGNHLPLLPAESEEEDEMEVEDQDSKEAKKPNIINFDTSLPTSHTYLGADMEEFHGRTLHDDDSCQVIPVLPQVMMILIPGQTLPLQLFHPQEVSMVRNLIQKDRTFAVLAYSNVQEREAQFGTTAEIYAYREEQDFGIEIVKVKAIGRQRFKVLELRTQSDGIQQAKVQILPECVLPSTMSAVQLESLNKCQIFPSKPVSREDQCSYKWWQKYQKRKFHCANLTSWPRWLYSLYDAETLMDRIKKQLREWDENLKDDSLPSNPIDFSYRVAACLPIDDVLRIQLLKIGSAIQRLRCELDIMNKCTSLCCKQCQETEITTKNEIFSLSLCGPMAAYVNPHGYVHETLTVYKACNLNLIGRPSTEHSWFPGYAWTAAQCKICASHIGWKFTATKKDMSPQKFWGLTRSALLPTIPDTEDEISPDKVILCL
pomalidomide-dependent binding with IKZF3 A153M ([7]; 10 μM MG132, 1 μM pomalidomide and dose-response): restored binding affinity with IKZF3 A153M; also recorded: greatest restoration of pomalidomide-dependent binding | mBU fold change at 1 μM Pomalidomide/DMSO ([7]; 10 μM MG132, mutant versus wild type CRBN): increased the mBU fold change versus wild type CRBN

B4: minCRBN4: All CRBN sequences other than amino acids 187-260 (deletion of the DDB1-binding domain), SEQ ID NO: 4 (protein)
chain: MAGEGDQQDAAHNMGNHLPLLPESEEEDEMEVEDQDSKEAKKPNIINFDTSLPTSHTYLGADMEEFHGRTLHDDDSCQVIPVLPQVMMILIPGQTLPLQLFHPQEVSMVRNLIQKDRTFAVLAYSNVQEREAQFGTTAEIYAYREEQDFGIEIVKVKAIGRQRFKVLELRTQSDGIQQAKVQILPLREWDENLKDDSLPSNPIDFSYRVAACLPIDDVLRIQLLKIGSAIQRLRCELDIMNKCTSLCCKQCQETEITTKNEIFSLSLCGPMAAYVNPHGYVHETLTVYKACNLNLIGRPSTEHSWFPGYAWTVAQCKICASHIGWKFTATKKDMSPQKFWGLTRSALLPTIPDTEDEISPDKVILCL
pomalidomide-dependent dimerization with IKZF3 degron (mBU) [5]: pomalidomide-dependent interactions

B5: minCRBN2: Minimal CRBN, amino acids 317-442 of CRBN, SEQ ID NO: 2 (protein)
chain: CTSLCCKQCQETEITTKNEIFSLSLCGPMAAYVNPHGYVHETLTVYKACNLNLIGRPSTEHSWFPGYAWTVAQCKICASHIGWKFTATKKDMSPQKFWGLTRSALLPTIPDTEDEISPDKVILCL
pomalidomide-dependent dimerization with IKZF3 degron (mBU) [5]: pomalidomide-dependent interactions

— patent publication US12049482B2, “Molecular switch-mediated control of engineered cells” (THE GENERAL HOSPITAL CORPORATION, priority 2017, dated 2024)
